# B1: Fab VH1-46_IGHD6-6*01_IGHJ1*01 S102A/S103P/S104F & L6_IGKJ1*01 (Fab, V domains shown)
# VH: QVQLVQSGAEVKKPGASVKVSCKASGYTFTSYYMHWVRQAPGQGLEWMGIINPSGGSTSYAQKFQGRVTMTRDTSTSTVYMELSSLRSEDTAVYYCAREEYAPFSAEYFQHWGQGTLVTVSS
# VL: not shown
# notes: Fab; also called H:APF & L:wt; APF triple mutant
# B2: control Fab VH6-1_IGHD6-13*01_IGHJ4*01 and V2-17_IGLJ2*01 (Fab, V domains shown)
# VH: QVQLQQSGPGLVKPSQTLSLTCAISGDSVSSNSAAWNWIRQSPSRGLEWLGRTYYRSKWYNDYAVSVKSRITINPDTSKNQFSLQLNSVTPEDTAVYYCAREGYSSSWYDYFDYWGQGTLVTVSS
# VL: SYELTQPPSVSVSPGQTARITCSGDALPKQYAYWYQQKPGQAPVLVIYKDSERPSGIPERFSGSSSGTTVTLTISGVQAEDEADYYCQSADSSGTYPVVFGGGTKLTVL
# B3: Fab VH4-34_IGHD7-27*01_IGHJ4*01 & V1-4_IGLJ4*01 (Fab, V domains shown)
# VH: QVQLQQWGAGLLKPSETLSLTCAVYGGSFSGYYWSWIRQPPGKGLEWIGEINHSGSTNYNPSLKSRVTISVDTSKNQFSLKLSSVTAADTAVYYCARANWGDYFDYWGQGTLVTVSS
# VL: QSALTQPASVSGSPGQSITISCTGTSSDVGGYNYVSWYQQHPGKAPKLMIYEVSNRPSGVSNRFSGSKSGNTASLTISGLQAEDEADYYCSSYTSSSTLFVFGGGTQLIIL
# notes: Tested as a Fab made in E. coli; The heavy chain variable region was cloned into Plasmid A (CH1 constant region, His6 and Flag tags); The lambda light chain variable region was cloned into Plasmid E (lambda CL); Only the variable domains are tied to this Fab by name
# Key:
# [1] = target: T1, rHuman IGF-1 sR, CF (R&D Systems Cat#391-GR) (human, UniProt P08069 31-932); test: Multispot ECL
# T1 construct: bought soluble receptor; also called insulin-like growth factor-1 soluble receptor
# [2] = target: T2, Recombinant Human DLL4 (R&D Systems Cat#1506-D4/CF) (human, UniProt Q9NR61 27-524); test: Multispot ECL titration
# T2 construct: bought recombinant protein; also called rHuman DLL4; delta-like protein 4
# [3] = target: T2, Recombinant Human DLL4 (R&D Systems …); test: control in the Notch reporter assay; binding assay not described
# [4] = target: T3, rHuman IGF-1 sR, (IGF-1 sR), CF (R&D Systems Cat#391-GR) (human, UniProt P08069 31-932); test: Multispot ECL (MSD), antigen spotted on plate, Fab 36.3 nM; blank spot 314
# T3 construct: Bought recombinant soluble receptor; also called insulin-like growth factor-1 soluble receptor
# [5] = target: T4, rHuman HGF R/c-MET/Fc Chimera, CF (R&D Systems Cat#358-MT/CF) (human, UniProt P08581 25-932); test: as above
# T4 construct: Bought recombinant protein; also called HGF R/Fc; hepatocyte growth factor receptor; Fc part of the bought chimera not given
# T4 sequence (P08581 25-932, change not shown): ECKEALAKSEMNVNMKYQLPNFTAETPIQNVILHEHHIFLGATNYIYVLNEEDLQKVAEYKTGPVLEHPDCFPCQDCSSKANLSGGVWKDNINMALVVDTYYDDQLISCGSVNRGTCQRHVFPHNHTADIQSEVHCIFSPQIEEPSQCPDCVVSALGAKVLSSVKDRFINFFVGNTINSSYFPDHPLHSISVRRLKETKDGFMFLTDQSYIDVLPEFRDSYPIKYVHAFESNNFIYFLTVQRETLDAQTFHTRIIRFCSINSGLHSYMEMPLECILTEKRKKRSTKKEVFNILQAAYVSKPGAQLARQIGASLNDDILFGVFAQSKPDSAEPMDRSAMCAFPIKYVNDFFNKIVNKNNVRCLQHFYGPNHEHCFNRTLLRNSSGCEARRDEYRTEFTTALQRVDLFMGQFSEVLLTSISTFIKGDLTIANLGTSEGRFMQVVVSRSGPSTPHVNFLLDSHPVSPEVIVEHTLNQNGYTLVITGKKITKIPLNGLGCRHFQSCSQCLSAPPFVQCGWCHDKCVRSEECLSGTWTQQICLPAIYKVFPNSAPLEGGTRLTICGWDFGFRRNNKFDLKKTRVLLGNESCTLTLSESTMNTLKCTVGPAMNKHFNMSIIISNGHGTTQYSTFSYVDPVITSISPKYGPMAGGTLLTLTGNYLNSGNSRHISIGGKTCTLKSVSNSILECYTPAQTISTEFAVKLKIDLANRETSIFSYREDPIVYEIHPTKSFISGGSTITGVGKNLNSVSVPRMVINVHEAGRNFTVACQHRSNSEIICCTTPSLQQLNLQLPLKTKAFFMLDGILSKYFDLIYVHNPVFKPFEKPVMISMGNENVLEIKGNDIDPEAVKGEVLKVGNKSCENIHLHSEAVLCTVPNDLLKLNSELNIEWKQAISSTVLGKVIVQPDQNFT
# [6] = target: T5, Recombinant Human DLL4 (R&D Systems Cat#1506-D4/CF) (human, UniProt Q9NR61 27-524); test: as above
# T5 construct: Bought recombinant protein; also called rHuman DLL4; delta-like protein 4
# [7] = target: T6, rHuman ErbB2/Fc Chimera, CF (R&D Systems Cat#1129-ER) (human, UniProt P04626 23-652); test: as above
# T6 construct: Bought recombinant protein; also called human epidermal growth factor 2 receptor; Fc part of the bought chimera not given
# [8] = target: T7, rHuman EGF R/Fc Chimera, CF (R&D Systems Cat#344-ER) (human, UniProt P00533 25-645); test: as above
# T7 construct: Bought recombinant protein; also called epidermal growth factor receptor; Fc part of the bought chimera not given
# [9] = target: T3, rHuman IGF-1 sR, (IGF-1 sR), CF (R&D …); test: Multispot ECL (MSD), antigen spotted on plate, Fab 580 nM; blank spot 679
# [10] = target: T4, rHuman HGF R/c-MET/Fc Chimera, CF (R&D …); test: as above
# [11] = target: T5, Recombinant Human DLL4 (R&D Systems …); test: as above
# [12] = target: T6, rHuman ErbB2/Fc Chimera, CF (R&D …); test: as above
# [13] = target: T7, rHuman EGF R/Fc Chimera, CF (R&D …); test: as above
# [14] = target: T3, rHuman IGF-1 sR, (IGF-1 sR), CF (R&D …); test: Multispot ECL (MSD), antigen spotted on plate, Fab 145 nM; blank spot 357
# [15] = target: T4, rHuman HGF R/c-MET/Fc Chimera, CF (R&D …); test: as above
# [16] = target: T5, Recombinant Human DLL4 (R&D Systems …); test: as above
# [17] = target: T7, rHuman EGF R/Fc Chimera, CF (R&D …); test: as above
# [18] = target: T3, rHuman IGF-1 sR, (IGF-1 sR), CF (R&D …); test: Multispot ECL (MSD), antigen spotted on plate, Fab 9.1 nM; blank spot 276
# [19] = target: T4, rHuman HGF R/c-MET/Fc Chimera, CF (R&D …); test: as above
# [20] = target: T5, Recombinant Human DLL4 (R&D Systems …); test: as above
# [21] = target: T6, rHuman ErbB2/Fc Chimera, CF (R&D …); test: as above
# [22] = target: T7, rHuman EGF R/Fc Chimera, CF (R&D …); test: as above
binder,measurement,setting,value
B1,binding result,[1],no binding
same,fold binding affinity against the parent antibody,[2],10 fold
B2,binding result,[3],no binding
B3,ECL signal at 36.3 nM Fab,[4],799
same,ECL signal at 36.3 nM Fab,[5],1060
same,ECL signal at 36.3 nM Fab,[6],1400
same,ECL signal at 36.3 nM Fab,[7],1030
same,ECL signal at 36.3 nM Fab,[8],831
same,ECL signal at 580 nM Fab,[9],1360
same,ECL signal at 580 nM Fab,[10],2340
same,ECL signal at 580 nM Fab,[11],4420
same,ECL signal at 580 nM Fab,[12],1710
same,ECL signal at 580 nM Fab,[13],1630
same,ECL signal at 145 nM Fab,[14],794
same,ECL signal at 145 nM Fab,[15],1170
same,ECL signal at 145 nM Fab,[16],2140
same,ECL signal at 145 nM Fab,[17],856
same,ECL signal at 9.1 nM Fab,[18],788
same,ECL signal at 9.1 nM Fab,[19],894
same,ECL signal at 9.1 nM Fab,[20],1030
same,ECL signal at 9.1 nM Fab,[21],987
same,ECL signal at 9.1 nM Fab,[22],800
